Results as given in PMC4703857.
pKd: −log10 of the molar value.

Tests used:
[1] = target: KdHpuA T124D (Kingella denitrificans); assay: NMR titration
[2] = target: Kingella denitrificans HpuA, wild type (Kingella denitrificans); assay: NMR titration
[3] = target: KdHpuA Δloop-1 (Kingella denitrificans); assay: NMR titration
[4] = target: Kingella denitrificans HpuA, wild type (Kingella denitrificans); assay: ITC
[5] = target: transferrin (Homo sapiens) (UniProt P02787); settings: cited from earlier work
Sequence of UniProt P02787 (P02787 20-698): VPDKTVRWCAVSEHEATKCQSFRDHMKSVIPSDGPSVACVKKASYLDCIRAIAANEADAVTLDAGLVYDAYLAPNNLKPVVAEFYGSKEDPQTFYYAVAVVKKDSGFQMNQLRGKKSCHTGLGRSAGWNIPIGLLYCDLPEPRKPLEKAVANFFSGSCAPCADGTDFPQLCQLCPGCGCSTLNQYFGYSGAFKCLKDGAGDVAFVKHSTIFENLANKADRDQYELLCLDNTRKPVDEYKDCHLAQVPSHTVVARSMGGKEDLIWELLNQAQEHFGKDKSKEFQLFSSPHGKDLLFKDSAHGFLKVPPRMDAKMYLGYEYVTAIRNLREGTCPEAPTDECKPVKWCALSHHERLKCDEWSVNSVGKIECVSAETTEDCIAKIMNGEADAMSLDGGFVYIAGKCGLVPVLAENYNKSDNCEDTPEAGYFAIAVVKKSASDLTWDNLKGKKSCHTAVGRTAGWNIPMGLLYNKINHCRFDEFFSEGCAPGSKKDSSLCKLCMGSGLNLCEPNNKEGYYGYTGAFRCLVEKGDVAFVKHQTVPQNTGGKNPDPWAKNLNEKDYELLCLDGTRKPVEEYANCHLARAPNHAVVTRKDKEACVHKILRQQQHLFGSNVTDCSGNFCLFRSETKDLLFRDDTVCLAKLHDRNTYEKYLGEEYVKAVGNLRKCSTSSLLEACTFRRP

[6] = target: human haemoglobin (human); assay: ITC
[7] = target: haemoglobin:haptoglobin complex (UniProt P00738); assay: ITC

## human haemoglobin (complex)
[1]
  pKd: 4.80
[2]
  pKd: 5.00
[3]
  pKd: 3.82
[4]
  pKd: 5.21
  stoichiometry N (Hb tetramers per HpuA): 0.5

## TbpAB (from UniProt Q9K0U9)
[5]
  pKd: 9.10

## Kingella denitrificans HpuA, wild type (natural protein)
[6]
  pKd: 4.96
  stoichiometry N (HpuA per Hb tetramer): 2
[7]
  pKd: 5.54
  stoichiometry N (HpuA per Hb4:Hp4 complex): 2
